Test results as given in patent US20200308294A1 (published 2020).
One block for each molecule: values may come before it.

Columns and labels:
VEGF = VEGF (UniProt P15692); assay: VEGF co-incubated with AB160, particulate removed, free VEGF in the supernatant measured by ELISA
[1] = target: ABRAXANE (albumin-bound paclitaxel) (UniProt P02768); assay: flow cytometry of particles stained with goat anti-mouse IgG and PE detection; ABX alone as comparison
[2] = target: AB160 (nanoparticle of albumin-bound paclitaxel and bevacizumab, ratio about 10:4, average size 160 nm) (UniProt P02768); assay: flow cytometry of particles stained with goat anti-mouse IgG and PE detection
[3] = target: T1, ABRAXANE (albumin-bound paclitaxel) (UniProt P02768 25-609, non-covalently bound paclitaxel (nanoparticle of about 130 nm)); assay: VEGF co-incubated with ABX for 2 hours, particulate spun down, free VEGF in the supernatant measured by ELISA
T1 construct: A nanoparticle of many albumin molecules with paclitaxel, not a single protein; also called ABX; Paclitaxel Albumin-stabilized Nanoparticle Formulation
Procedure: The VEGF was incubated with the nanoparticles for 2 hours at room temperature. The suspension was spun at 6000 rpm for 15 minutes, supernatants were collected and free VEGF was measured by ELISA. Briefly, ELISA plates were coated with capture antibody overnight at 4° C. Plates were washed, blocked and standards and samples were added. After washing, detection antibody was added and plates were developed with substrate (R and D Systems, Minneapolis, Minn.). […] The concentration of unbound VEGF was determined with a standard curve from 0 to 2000 μg/ml.

- % VEGF unbound (VEGF): < 10%
Molecule: AB160 (nanoparticle of albumin-bound paclitaxel and bevacizumab, ratio about 10:4, average size 160 nm) (from UniProt P02768 25-609)

- % positive [1]: 6.7%
- % positive [2]: 41.2%
Molecule: goat anti-mouse IgG (antibody)

- binding result [3]: no binding (tested: >80% VEGF unbound)
B1: VEGF (ligand, UniProt P15692-4 27-191, looked up)
chain: APMAEGGGQNHHEVVKFMDVYQRSYCHPIETLVDIFQEYPDEIEYIFKPSCVPLMRCGGCCNDEGLECVPTEESNITMQIMRIKPHQGQHIGEMSFLQHNKCECRPKKDRARQENPCGPCSERRKHLFVQDPQTCKCSCKNTDSRCKARQLELNERTCRCDKPRR
notes: Soluble VEGF added to the nanoparticles
